This note sets out measurements from publication PMC5657617, “The GYF domain protein PSIG1 dampens the induction of cell death during plant-pathogen interactions” (PLoS Genetics, 2017).

First the molecules themselves.
B1: HisMBP-SMG7 (natural protein, Arabidopsis thaliana, UniProt A9QM73 1-1059, looked up)
chain: MMTLQMDKTTASSSWERAKSIYDEIAELANKRQKAGNPPDPNLLQLLREKYEAIILESHTFSEQHNIEIPLWQLHYKRIEYFRLHINRVLASSTSTAAQNVKGPSKAEQIAQLKLQFRTFLSEATGFYHDMILKIRSKYGLPLGSFSEDQQSQNLSDKDGKELAEVQKALKSCHRCLIYLGDLARYKGMYAEGDSRSRQYASASSYYLQAASLWPASGNPHHQLAIVASYSRDEFVTTYRYFRSLAVEYPFPTARDNLIVAFDKNRQSYEKLFVPSKDSSKRLTGKGRGKGADISLKDATLVAGPEKDKVTIANEMLKAFSIRFVHLNGILFTRTSLETFFDVLASTSSSLREVISLGSAKELTLGIDTSDSALFIVRVVTMLIFSVHNSKKETEGQSYAEIVQRVEPARNSLTASFELLGLVIEKCVQLGDPSSSYFLPGVLVFVEWLACCPDIALGSDPDDRQTAVRNSFWNQFVVFFNQVLSLGPTFIDDVEDETCFSNMSLYDERETENRLALWEDYELRGFLPLLPAQTILNFSRKHSFGTEGPKEKKARIKRIFAAGKALTSVIKVDQNHVYFDSKKKKFLVGVKPADDFLDSHSSPPKACNALQDNQVMIDHNSPIMQLDQQIYMGEEDDDDEVIVFKPLVTEKRKEASDQIYVPSGGFRKSDQVTTMGDFKALSGSDVAFHENQILQARGNASIQVPASVGANLLGPLQPSTQSQAMHMQQVQTQVQVPASVGANLLGLLLTSTQSQAMHMQQVQTQAVNPQPAQSLAASRLQPIQSQVAQPLPSRVVHFQQTQAQVSHVSPAHSQSTSFGGGSKWSPEEAASLASSLSGFAQLGNGHVMRNEMQGNHGVSYYPAHSLPVHQSYNGNGMGGMPYSQSRTPEAVFPPKIDPVLSSGVVADGLGVQSSLAKKNPISRAFRHLGPPPGFNSVPAKLQKEPAPGSELSGNNHLPVDDYSWLDGYQAQSSRGVGLNSSLNYATSGKPEHLGSTGNGLNGPANFPFPGKQVPTSQVQADFPYFQNPQKDNFVDKNHQSTQLPEQYQGQSTWSSRHFV
notes: SMG7, Arabidopsis thaliana, At5g19400; open reading frame amplified from Arabidopsis seedling (Col-8) cDNA; residues 1-1059 by the limits of its two halves; also called AtSMG7; HisMBP-tagged SMG7; source: Escherichia coli Rosetta-gami 2 (DE3), purified (Dextrin-Sepharose)

The target in test [1] is T1, GST-PSIG1 (PLANT SMY2-TYPE ILE-GYF DOMAIN-CONTAINING PROTEIN 1, full length) (Arabidopsis thaliana, UniProt Q9FMM3 1-1714).
T1 construct: PSIG1 (EXA1/MUSE11), Arabidopsis thaliana, At5g42950; whole ORF cloned into pGEX4T-3; the text calls it full-length PSIG1; Vector pGEX4T-3, cloned between SalI and NotI sites; also called GST-tagged PSIG1; EXA1; source: Escherichia coli Rosetta-gami 2 (DE3), purified (Glutathione-Sepharose)
Description: pull-down; GST-PSIG1 proteins and HisMBP-SMG7 proteins mixed in 50 mM Tris-HCl pH 7.5, 150 mM NaCl, 1 mM DTT, 0.1% Triton X-100; Glutathione-Sepharose beads, 2 h at 4°C; washed three times with 300 mM NaCl buffer; detected by anti-His or anti-GST immunoblot or CBB. As to conditions: both partners purified.

In the test “HisMBP-SMG7” the target is B1. The test is described as above. As to conditions: both partners purified.

T1 sequence (Q9FMM3 whole entry, the tested form may be a part): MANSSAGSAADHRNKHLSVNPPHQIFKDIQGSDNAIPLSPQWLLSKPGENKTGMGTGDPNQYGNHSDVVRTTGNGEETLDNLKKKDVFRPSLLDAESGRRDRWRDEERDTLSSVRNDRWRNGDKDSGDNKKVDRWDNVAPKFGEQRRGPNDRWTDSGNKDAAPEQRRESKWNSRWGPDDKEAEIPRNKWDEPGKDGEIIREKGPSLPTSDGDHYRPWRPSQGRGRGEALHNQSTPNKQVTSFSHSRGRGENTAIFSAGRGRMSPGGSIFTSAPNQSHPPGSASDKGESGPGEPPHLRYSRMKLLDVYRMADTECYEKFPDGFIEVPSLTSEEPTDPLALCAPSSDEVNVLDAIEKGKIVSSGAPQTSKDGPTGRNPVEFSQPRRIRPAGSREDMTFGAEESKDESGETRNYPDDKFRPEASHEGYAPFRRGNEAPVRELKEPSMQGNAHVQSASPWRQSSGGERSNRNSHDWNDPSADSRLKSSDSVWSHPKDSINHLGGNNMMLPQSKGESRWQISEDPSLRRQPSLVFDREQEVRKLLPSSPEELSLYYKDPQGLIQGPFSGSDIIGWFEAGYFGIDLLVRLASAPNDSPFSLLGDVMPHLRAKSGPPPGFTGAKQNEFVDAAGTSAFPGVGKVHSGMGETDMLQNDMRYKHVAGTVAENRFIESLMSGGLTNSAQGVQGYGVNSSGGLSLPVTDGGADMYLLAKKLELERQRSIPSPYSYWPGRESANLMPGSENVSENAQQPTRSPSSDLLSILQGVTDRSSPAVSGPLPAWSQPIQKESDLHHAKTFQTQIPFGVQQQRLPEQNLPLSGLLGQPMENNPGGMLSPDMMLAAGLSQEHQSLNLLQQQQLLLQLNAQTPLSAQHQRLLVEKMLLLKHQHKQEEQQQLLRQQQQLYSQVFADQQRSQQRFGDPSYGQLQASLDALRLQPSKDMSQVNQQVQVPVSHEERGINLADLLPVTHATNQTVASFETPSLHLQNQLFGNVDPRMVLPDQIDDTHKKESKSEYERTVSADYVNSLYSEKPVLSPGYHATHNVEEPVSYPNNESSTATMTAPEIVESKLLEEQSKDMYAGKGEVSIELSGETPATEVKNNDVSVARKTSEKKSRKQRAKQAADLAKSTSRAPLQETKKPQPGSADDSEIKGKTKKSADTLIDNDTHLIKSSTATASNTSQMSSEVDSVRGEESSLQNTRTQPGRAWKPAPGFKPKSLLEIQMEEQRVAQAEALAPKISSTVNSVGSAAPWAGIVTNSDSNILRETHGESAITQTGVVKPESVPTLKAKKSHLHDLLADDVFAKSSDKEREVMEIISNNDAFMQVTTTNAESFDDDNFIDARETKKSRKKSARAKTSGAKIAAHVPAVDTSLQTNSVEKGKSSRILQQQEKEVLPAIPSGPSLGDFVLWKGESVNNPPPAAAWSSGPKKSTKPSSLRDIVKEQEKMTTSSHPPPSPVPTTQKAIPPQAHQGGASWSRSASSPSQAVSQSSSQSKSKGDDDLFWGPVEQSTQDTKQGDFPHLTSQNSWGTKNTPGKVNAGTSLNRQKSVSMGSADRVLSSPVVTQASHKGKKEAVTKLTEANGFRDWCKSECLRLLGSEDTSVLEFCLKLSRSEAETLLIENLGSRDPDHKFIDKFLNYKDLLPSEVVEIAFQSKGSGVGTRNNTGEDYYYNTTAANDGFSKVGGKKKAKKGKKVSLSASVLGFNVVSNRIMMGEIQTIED

B1: the binding result in test [1] is “binds”.

B2: GST-PSIG1^1-606 (domain or fragment)
chain: not shown
notes: PSIG1, Arabidopsis thaliana, At5g42950, residues 1-606, with the GYF domain and without its own PPGF motif; Vector pGEX4T-3; source: Escherichia coli Rosetta-gami 2 (DE3), purified (Glutathione-Sepharose)
Turning to B2, the binding result with HisMBP-SMG7 is “binds”.

B3: HisMBP-SMG7-C (domain or fragment, Arabidopsis thaliana, UniProt A9QM73 549-1059, looked up)
chain: PKEKKARIKRIFAAGKALTSVIKVDQNHVYFDSKKKKFLVGVKPADDFLDSHSSPPKACNALQDNQVMIDHNSPIMQLDQQIYMGEEDDDDEVIVFKPLVTEKRKEASDQIYVPSGGFRKSDQVTTMGDFKALSGSDVAFHENQILQARGNASIQVPASVGANLLGPLQPSTQSQAMHMQQVQTQVQVPASVGANLLGLLLTSTQSQAMHMQQVQTQAVNPQPAQSLAASRLQPIQSQVAQPLPSRVVHFQQTQAQVSHVSPAHSQSTSFGGGSKWSPEEAASLASSLSGFAQLGNGHVMRNEMQGNHGVSYYPAHSLPVHQSYNGNGMGGMPYSQSRTPEAVFPPKIDPVLSSGVVADGLGVQSSLAKKNPISRAFRHLGPPPGFNSVPAKLQKEPAPGSELSGNNHLPVDDYSWLDGYQAQSSRGVGLNSSLNYATSGKPEHLGSTGNGLNGPANFPFPGKQVPTSQVQADFPYFQNPQKDNFVDKNHQSTQLPEQYQGQSTWSSRHFV
notes: also called AtSMG7-C (549-1059); C-terminal half of SMG7; source: Escherichia coli Rosetta-gami 2 (DE3), purified (Dextrin-Sepharose)
For the molecule B3, in test [1], the binding result is given as “binds”.
